# Reference: US11497796B2, “Agents directed against a cis RGMa/neogenin interaction or lipid rafts and use of the same in methods of treatment” (UNIVERSITY HEALTH NETWORK, priority 2013, dated 2022)
# B1: RGMaΔ: RGMaΔ was full-length RGMa (protein)
# chain: CKILKCNSEFWAATSGSHHLGAEETPEFCTALRAYAHCTRRTARTCRGDLAYHSAVHGIDDLMVQHNCSKDGPTSQPRLRTLPPGDSQERSDSPEICHYEKSFHKHSAAPNYTHCGLFGDPHLRTFTDTFQTCKVQGAWPLIDNNYLNVQVTNTPVLPGSSATATSKLTIIFKSFQECVEQKVYQAEMDELPAAFADGSKNGGDKHGANSLKITEKVSGQHIEIQAKYIGTTIVVRQVGRYLTFAVRMPEEVVNAVEDRDSQGLYLCLRGCPLNQQIDFQTFRLAQAAEGRARRKGPSLPAPPEAFTYESATAKCREKLPVEDLYFQSCVFDLLTTGDVNFMLAAYYAFEDVKMLHSNKDKLHLYERTRALAPGN
# B2: N-RGMa: N-terminal RGMa isoform of the CNS (protein)
# chain: MQPPRERLVVTGRAGWMGMGRGAGRSALGLWPTLAFLLCSFPAAISPCKILKCNSEFWSATSSGSHAPASDDVPEFCAALRTYALCTRRTARTCRGDLAYHSAVHGIEDLMSQHNCSKDGPTSQPRVRTLPPAGDSQERSDSPEICHYEKSFHKHSAAPNYT
# modifications: Mouse N-RGMa
# notes: N-terminal RGMa isoform of the CNS
# What was measured:
# [1] = test system: retinal explants (retinal ganglion cell neurites); experiment: Retinal explant neurite outgrowth on laminin or myelin; type: cell-based, chick; conditions: AY-9944 1 μM, BM15.766 4 μM, 18 hrs
# Procedure: (§1) Retinal explants outgrowth assay. Poly-L-Lysine (PLL; SIGMA; 10 μg/ml) coated glass coverslips were treated with Laminin (10 μg/ml; Invitrogen) and RGMa proteins (5 μg) and incubated for 3 hrs at room temperature. PLL treated coverslips were coated with myelin overnight (6 μg/cm2), followed by coating with Laminin. Temporal retinal explants were cultured on either myelin or protein-coated surfaces in DMEM F-12 media (2% chick serum, 10% FBS) for 18 h. To disrupt rafts, explants were pre-treated with 10 mM MβCD for 12 min or 2 U/ml CO for 1 h at 37° C., washed, and cultured on protein coated coverslips. Explants were then fixed with 4% PFA and stained with Alexa488-fluor-phalloidin (1:50; Molecular Probes). Fiber length was quantified using Image Pro 5.0.
# Specifically, retinal explants were prepared from E7 chick embryos, cultured on coverslips coated with on Laminin or myelin, and treated with control (DMSO) or AY-9944 (1 μM) or BM15.766 (4 μM), two inhibitors of cholesterol biosynthesis. After 18 hrs in culture, explants were fixed with 4% PFA and stained with Alexa488-Phalloidin. Neurites were measured using Cellsens software. Retinal explants were cultured on laminin (control) or myelin (the inhibitory compound of the CNS). On laminin, axon growth was normal compared to myelin because myelin inhibited outgrowth.
# photoreceptor cells = experiment: Photoreceptor survival in rd1 mice (retinitis pigmentosa model); type: in vivo, mouse
# Procedure: The rd1 mouse model is a model for human RP and carried a loss-of-function mutation in the gene encoding for the β-subunit of the rod photoreceptor cGMP phosphodiesterase-6.2. This loss-of-function mutation led to an accumulation of cGMP, which caused photoreceptor cell death.
# In these studies, intraocular injection of the 4Ig (2 μg/μl) peptide at P9 and P15 was performed and animals were sacrificed at P21 to examine cell survival. […] Injection of 4Ig increased outer nuclear layer (ONL) thickness to about 6 cells (FIG. 19). This measurement was the average thickness of the ONL.
# As described above, cholesterol depletion removes lipid rafts. Specifically, mice were treated with daily […] (IP) injections of MβCD from P9 to P21.
# To examine the effect of reducing cholesterol synthesis on cell survival, AY-9944 was examined in rd1 mice (FIGS. 20 and 21). Rd1 mice were treated using two intra-peritoneal injections of AY-9944, at P9 and P15 and sacrificed at P21.
# [2] = biological target: T1, 6FNIII-domain of Neogenin (Gallus gallus, UniProt Q90610); experiment: ELISA / AP binding assay of RGMa peptides to Neogenin domains; conditions: Neogenin domains fused to AP
# T1 construct: made in house
# T1 sequence (Q90610 429-1036): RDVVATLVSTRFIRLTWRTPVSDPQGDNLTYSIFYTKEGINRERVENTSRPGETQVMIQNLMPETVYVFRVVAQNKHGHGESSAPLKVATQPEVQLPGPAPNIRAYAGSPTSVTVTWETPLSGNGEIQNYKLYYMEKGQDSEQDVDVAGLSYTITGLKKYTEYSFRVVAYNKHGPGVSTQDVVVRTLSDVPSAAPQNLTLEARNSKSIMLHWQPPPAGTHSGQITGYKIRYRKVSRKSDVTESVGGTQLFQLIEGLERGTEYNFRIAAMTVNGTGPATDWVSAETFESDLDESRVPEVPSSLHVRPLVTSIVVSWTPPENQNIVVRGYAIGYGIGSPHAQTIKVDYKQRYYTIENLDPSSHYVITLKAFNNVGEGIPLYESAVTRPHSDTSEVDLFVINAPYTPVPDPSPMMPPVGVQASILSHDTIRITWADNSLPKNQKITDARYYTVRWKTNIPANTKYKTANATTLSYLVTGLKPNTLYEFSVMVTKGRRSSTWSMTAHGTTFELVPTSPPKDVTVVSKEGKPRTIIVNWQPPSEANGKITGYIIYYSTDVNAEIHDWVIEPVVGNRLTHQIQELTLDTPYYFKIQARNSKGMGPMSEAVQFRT
# Source text: (§2) Specifically, the 4Ig-domain and 6FNIII-domain of Neogenin were each fused to alkaline phosphatase (AP). The 4Ig-domain and 6FNIII-domain of Neogenin were found in the extracellular portion of Neogenin. Accession No. AAC59662 (SEQ ID NO:1) was the amino acid sequence of Neogenin. The 4Ig-domain was amino acids 1 to 383 of Accession No. AAC59662 (SEQ ID NO:1). The 6FNIII-domain was amino acids 429 to 1036 of Accession No. AAC59662 (SEQ ID NO:1).
# (§3) The binding of these fusions to various RGMa peptides were analyzed in an ELISA assay (FIG. 2A).
# (§4) To determine if distinct N-terminal regions of RGMa bound the 4Ig- and 6FNIII-domains of Neogenin, peptides were generated that spanned the N-terminal region of RGMa. The amino acid sequence of RGMa was Accession No. NP_989868.1 (SEQ ID NO:6). These peptides were a peptide spanning amino acids 28-73 of RGMa (also referred to herein as “N-Raft”) and a peptide spanning amino acids 77-113 of RGMa (also referred to herein as “N-inh”). […] In a complementary experiment, in which the N-Raft and N-inh peptides of RGMa were fused with AP instead of the 4Ig- and 6FNIII-domains of Neogenin, N-Raft bound to the 4Ig-domain and not the 6FNIII-domain while N-inh bound to the 6FNIII-domain and not the 4Ig-domain (FIG. 9). Additionally, N-inh and N-Raft coated beads pulled down 6FNIII-domain and 4Ig-domain, respectively, which was consistent with the ELISA results described above (FIG. 2B).
# (§5) The assay was conducted in a 96-well microtiter plate (Corning Incorporated). The wells were coated with 100 μl (10 μg/mL) of Poly-L-Lysine at 4° C. overnight. Wells were then washed three times with 100 μl of PB ST (+0.02% Tween).
# (§6) 50 μl (2.5 μg/mL) of His-tagged: Full-length Neogenin; the 4Ig-domain of Neogenin; and 6FNIII-domain of Neogenin were coated onto each well for 1 hour at 37° C. Following three washes of 100 μl PBST, each well was then blocked with 300 μl of 3% BSA in PBST for 1 hour at 37° C.
# (§7) 50 μl (1.0 μg/mL) AP-tagged: N-RGMa (28-73); N-RGMa (28-54); N-RGMa (40-62); N-RGMa (54-73); N-RGMa (54-62) in 1% BSA+PBST was then added to each well and incubated at 37° C. for 1 hour. Each well was washed thoroughly three times with 100 μl PBST followed by subsequent equilibration of each well with Alkaline Phosphatase (AP) developing buffer (100 mM NaHCO3, 1 mM MgCl2). The reaction was developed using AP developing buffer supplemented with, p-nitrophenyl phosphate (pNPP) (Sigma-Aldrich) and allowed to develop until color development. The reaction was stopped with the addition of 50 μl (0.1M) NaOH. The absorbance of each reaction was measured using a microplate autoreader (BIO-TEK Instruments Inc.) at 405 nanometers (nm) wavelength.
# [3] = biological target: T2, 6FNIII-domain of Neogenin (His-6FNIII) (Gallus gallus, UniProt Q90610); experiment: Pull-down assay with peptide-coated beads; type: binding; conditions: Western blot with anti-His
# T2 construct: His; made in house
# T2 sequence (Q90610 429-1036): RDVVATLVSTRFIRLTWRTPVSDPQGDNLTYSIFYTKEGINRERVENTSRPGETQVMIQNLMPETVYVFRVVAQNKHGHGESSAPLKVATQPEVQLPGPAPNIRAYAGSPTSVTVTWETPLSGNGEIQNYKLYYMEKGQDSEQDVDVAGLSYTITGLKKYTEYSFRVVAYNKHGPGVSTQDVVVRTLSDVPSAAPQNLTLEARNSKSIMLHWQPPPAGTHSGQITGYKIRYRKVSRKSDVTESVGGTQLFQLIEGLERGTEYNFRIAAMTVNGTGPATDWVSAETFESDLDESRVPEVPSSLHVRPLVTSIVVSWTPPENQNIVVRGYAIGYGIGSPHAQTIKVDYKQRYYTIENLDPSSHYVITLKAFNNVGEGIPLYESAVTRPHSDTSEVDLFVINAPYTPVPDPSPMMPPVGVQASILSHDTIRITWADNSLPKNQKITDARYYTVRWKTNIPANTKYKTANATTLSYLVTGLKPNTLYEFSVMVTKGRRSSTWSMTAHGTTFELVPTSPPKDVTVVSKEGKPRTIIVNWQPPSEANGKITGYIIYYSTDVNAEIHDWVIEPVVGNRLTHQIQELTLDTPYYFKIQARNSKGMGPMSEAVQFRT
# Procedure: (A) RGMa proteins were incubated on plates coated with 4Ig- or 6FNIII-AP. One C- and one N-RGMa domain (N-RGMa^77-113) interacted with 6FNIII. One N-RGMa domain (N-Raft) interacted with 4Ig. (B) Supernatants (Sup) from cells expressing His-6FNIII or His-4Ig, were pulled down (IP) with beads coated with N-Raft, N-RGMa^50-99, and N-inh. Western Blot was then performed with an anti-His antibody to reveal whether or not His-6FNIII or His-4Ig interacted with the coated beads. […] Data are average±SEM (n=3 independent experiments), *p<0.0001. Scale bar, 100 μm. (E) Chick brains were injected with control peptide (Ctrl; N-RGMa^50-99), 4Ig, N-Raft, or Noggin 1 day before preparing membrane fractionations. In control experiments, Neogenin localized to the Flotillin/RGMa-containing lipid raft fraction (as shown in solid lined boxes). 4Ig, N-Raft, or Noggin shifted Neogenin to heavy fractions.
# Proteins were coupled to activated CNBr Sepharose beads (Pharmacia) according to supplier instructions. Supernatants from transfected cells were added to coupled beads for 2 h at room temperature (RT). Beads were then washed 6× with PBS plus 0.02% Tween 20, and SDS loading buffer was added. Samples were boiled and subjected to Western blotting.
# [4] = test system: temporal retinal explants (axonal outgrowth); experiment: Retinal explants outgrowth assay; type: cell-based, chick; conditions: for effect on axonal outgrowth when provided as growth substrate (in trans): protein as substrate
# Procedure: Poly-L-Lysine (SIGMA; 10 μg/ml) coated glass coverslips were treated with Laminin (Invitrogen; 10 μg/ml) and RGMa proteins (5 μg/ml) and incubated for 3 hours at room temperature. Temporal retinal explants were cultured on protein-coated surfaces for 18 hours. To disrupt the lipid rafts, explants were pretreated with 10 mM methyl-β-cyclodextrin (MβCD) for 12 minutes or 2 U/ml cholesterol oxidase (CO) for 1 hour at 37° C. Explants were then fixed with 4% paraformaldehyde (PFA) and stained with Alexa488-phalloidin. Fiber length was quantified using Image Pro 5.0. For immunolocalization, explants were treated with Cholera Toxin B-FITC (C1655; Sigma; 10 mg/mL) and patched, fixed and stained with Neogenin antibody. Retinal ganglion cells (RGCs) were electroporated with RGMa-His and cultured for 18 hours. The cells were fixed and stained with Neogenin and His-tag antibodies.
# as §1
# Statistical analysis of retinal outgrowth assays was performed using Student's two-tail t-test using Excel (Microsoft). Results were expressed as the mean±SEM (n=at least 3 independent experiments; 2 duplicates per independent experiment, >10 explants per duplicate).
# 4Ig-domain of Neogenin = biological target: T3, 4Ig-domain of Neogenin (Gallus gallus, UniProt Q90610); experiment: ELISA / AP binding assay of RGMa peptides to Neogenin domains; conditions: for interaction with the 4Ig-domain of Neogenin: ELISA, Neogenin domains fused to AP
# T3 construct: made in house
# T3 sequence (Q90610 1-383): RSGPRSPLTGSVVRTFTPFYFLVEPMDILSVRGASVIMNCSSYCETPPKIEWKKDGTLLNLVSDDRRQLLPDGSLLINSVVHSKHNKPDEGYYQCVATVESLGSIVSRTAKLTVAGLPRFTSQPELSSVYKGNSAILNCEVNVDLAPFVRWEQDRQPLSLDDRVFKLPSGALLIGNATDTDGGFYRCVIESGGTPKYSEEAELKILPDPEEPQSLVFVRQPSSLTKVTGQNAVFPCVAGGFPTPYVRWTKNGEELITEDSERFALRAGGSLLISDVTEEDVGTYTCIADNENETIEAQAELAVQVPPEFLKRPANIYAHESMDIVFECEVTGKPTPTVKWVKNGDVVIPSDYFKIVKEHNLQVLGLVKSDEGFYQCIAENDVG
# Source text: as §2, §3, §4, §5, §6, §7
Molecule,outgrowth on laminin [1],outgrowth on myelin [1],interaction with the 6FNIII-domain of Neogenin [2],interaction with the 4Ig-domain of Neogenin (4Ig-domain of Neogenin),effect on axonal outgrowth when provided as growth substrate (in trans) [4],other results
Clc1ccccc1CNCC1CCC(CNCc2ccccc2Cl)CC1 (stereo not shown) [AY-9944],did not influence outgrowth on laminin,restored outgrowth on myelin,–,–,–,"number of rods within the Outer Nuclear Layer (anti-Rhodopsin) (photoreceptor cells; injected at P9, P21): dramatic increase in the number of rods; photoreceptor survival (photoreceptor cells; two intra-peritoneal injections at P9 and P15, sacrificed at P21): promoted photoreceptor survival"
O=C(O)c1ccc(CCN2CCN(C/C=C/c3ccc(Cl)cc3)CC2)cc1 [BM15.766],did not influence outgrowth on laminin,restored outgrowth on myelin,–,–,–,–
N-inh: peptide spanning amino acids 77-113 of RGMa (GDLAYHSAVHGIDDLMVQHNCSKDGPTSQPRLRTLPP; left off: small tags and cut ends),–,–,interacted,–,–,"pull-down of 6FNIII-domain by peptide-coated beads [3]: pulled down; axonal growth on peptide as substrate ([4]; RGMa peptide as substrate, controls 238.1±9.3 μm): 88.1±13.3 μm"
B1,–,–,interacted,did not interact,blocked axon growth,binding to the 4Ig-domain of Neogenin (4Ig-domain of Neogenin; AP-tagged fragments 1.0 μg/mL on coated His-tagged 4Ig): did not bind
B2,–,–,interacted,interacted,blocked axon growth,–
